Assay results taken from patent US20130209454A1.

What was measured:
Assay in all cases: cell-based or functional assay
[1] = molecular target: Env of HIV-1 strain Ce1172_H1 (HIV-1)
[2] = molecular target: HIV-1 Env of strain Ce704809221_1B3 (HIV-1)
[3] = molecular target: HIV-1 Env of strain CAAN5342.A2 (HIV-1)
[4] = molecular target: HIV-1 Env of strain ZM249M.PL1 (HIV-1)
[5] = molecular target: HIV-1 Env of strain Du422.1 (HIV-1)
[6] = molecular target: HIV-1 Env of strain 3016.v5.c45 (HIV-1)
[7] = molecular target: HIV-1 Env of strain A07412M1.vrc12 (HIV-1)
[8] = molecular target: HIV-1 Env of strain C3347.c11 (HIV-1)
[9] = molecular target: Env of HIV-1 strain BJOX015000.11.5 (HIV-1)
[10] = molecular target: Env of HIV-1 strain 62357_14_D3_4589 (HIV-1)
[11] = molecular target: Env of HIV-1 strain T278-50 (HIV-1)
[12] = molecular target: HIV-1 Env of strain Du172.17 (HIV-1)
[13] = molecular target: Env of HIV-1 strain HIV-16845-2.22 (HIV-1)
[14] = molecular target: HIV-1 Env of strain 6545.v4.c1 (HIV-1)
[15] = molecular target: Env of HIV-1 strain 246F C1G (HIV-1)
[16] = molecular target: Env of HIV-1 strain 231966.c02 (HIV-1)
[17] = molecular target: HIV-1 Env of strain 1012_11_TC21_3257 (HIV-1)
[18] = molecular target: HIV-1 Env of strain Ce1172_H1 (HIV-1)
[19] = molecular target: Env of HIV-1 strain CNE5 (HIV-1)
[20] = molecular target: Env of HIV-1 strain X2088_c9 (HIV-1)
[21] = molecular target: HIV-1 Env of strain 235-47 (HIV-1)
[22] = molecular target: HIV-1 Env of strain TRO.11 (HIV-1)
[23] = molecular target: Env of HIV-1 strain 928-28 (HIV-1)
[24] = molecular target: Env of HIV-1 strain P0402_c2_11 (HIV-1)
[25] = molecular target: Env of HIV-1 strain C1080.c03 (HIV-1)
[26] = molecular target: HIV-1 Env of strain 3817.v2.c59 (HIV-1)
[27] = molecular target: Env of HIV-1 strain Q769.d22 (HIV-1)
[28] = molecular target: Env of HIV-1 strain 1012_11_TC21_3257 (HIV-1)
[29] = molecular target: HIV-1 Env of strain 6811.v7.c18 (HIV-1)
[30] = molecular target: Env of HIV-1 strain 3301.v1.c24 (HIV-1)
[31] = molecular target: Env of HIV-1 strain C4118.c09 (HIV-1)
[32] = molecular target: HIV-1 Env of strain 263-8 (HIV-1)
[33] = molecular target: HIV-1 Env of strain 6244_13_B5_4576 (HIV-1)
[34] = molecular target: Env of HIV-1 strain A07412M1.vrc12 (HIV-1)
[35] = molecular target: HIV-1 Env of strain 1006_11_C3_1601 (HIV-1)
[36] = molecular target: Env of HIV-1 strain SC05_8C11_2344 (HIV-1)
[37] = molecular target: HIV-1 Env of strain CAP210.2.00.E8 (HIV-1)
[38] = molecular target: HIV-1 Env of strain 231966.c02 (HIV-1)
[39] = molecular target: Env of HIV-1 strain ZM135M.PL10a (HIV-1)
[40] = molecular target: HIV-1 Env of strain X2088_c9 (HIV-1)
[41] = molecular target: HIV-1 Env of strain SC05_8C11_2344 (HIV-1)
[42] = molecular target: Env of HIV-1 strain 1006_11_C3_1601 (HIV-1)
[43] = molecular target: Env of HIV-1 strain CNE30 (HIV-1)
[44] = molecular target: Env of HIV-1 strain THRO4156.18 (HIV-1)
[45] = molecular target: Env of HIV-1 strain 3103.v3.c10 (HIV-1)
[46] = molecular target: Env of HIV-1 strain CNE17 (HIV-1)
[47] = molecular target: Env of HIV-1 strain BJOX009000.02.4 (HIV-1)
[48] = molecular target: HIV-1 Env of strain CNE53 (HIV-1)
[49] = molecular target: Env of HIV-1 strain 6545.v4.c1 (HIV-1)
[50] = molecular target: Env of HIV-1 strain ZM247v1(Rev-) (HIV-1)

Chain of NIH45-46 (antibody) (VH): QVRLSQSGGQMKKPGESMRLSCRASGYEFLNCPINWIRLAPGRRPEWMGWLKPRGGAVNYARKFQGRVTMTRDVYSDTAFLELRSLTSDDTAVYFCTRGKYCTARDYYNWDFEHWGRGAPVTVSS
Chain of NIH45-46 (antibody) (V domain): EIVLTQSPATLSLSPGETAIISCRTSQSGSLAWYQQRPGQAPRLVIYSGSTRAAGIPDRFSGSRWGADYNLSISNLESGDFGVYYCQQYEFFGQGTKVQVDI

NIH45-46 (antibody)
IC80 [1]: > 50 µg/mL
IC50, pseudovirus neutralization [2]: 0.15 µg/mL
IC50, pseudovirus neutralization [3]: 0.15 µg/mL
IC50, pseudovirus neutralization [4]: 0.017 µg/mL
IC50, pseudovirus neutralization [5]: > 50 µg/mL
IC50, pseudovirus neutralization [6]: > 50 µg/mL
IC50, pseudovirus neutralization [7]: 0.03 µg/mL
IC50, pseudovirus neutralization [8]: 0.029 µg/mL
IC80 [9]: 0.38 µg/mL
IC80 [10]: 0.19 µg/mL
IC80 [11]: > 50 µg/mL
IC50, pseudovirus neutralization [12]: > 50 µg/mL
IC80 [13]: 22.6 µg/mL
IC50, pseudovirus neutralization [14]: > 50 µg/mL
IC80 [15]: > 50 µg/mL
IC80 [16]: 9.64 µg/mL
IC50, pseudovirus neutralization [17]: 0.01 µg/mL
IC50, pseudovirus neutralization [18]: > 50 µg/mL
IC80 [19]: 0.41 µg/mL
IC80 [20]: > 50 µg/mL
IC50, pseudovirus neutralization [21]: 0.3 µg/mL
IC50, pseudovirus neutralization [22]: 1.61 µg/mL
IC80 [23]: 0.64 µg/mL
IC80 [24]: 0.214 µg/mL
IC80 [25]: 11.6 µg/mL
IC50, pseudovirus neutralization [26]: > 50 µg/mL
IC80 [27]: 0.033 µg/mL
IC80 [28]: 0.04 µg/mL
IC50, pseudovirus neutralization [29]: 0.035 µg/mL
IC80 [30]: 0.033 µg/mL
IC80 [31]: 0.91 µg/mL
IC50, pseudovirus neutralization [32]: 0.05 µg/mL
IC50, pseudovirus neutralization [33]: 0.07 µg/mL
IC80 [34]: 0.13 µg/mL
IC50, pseudovirus neutralization [35]: 0.027 µg/mL
IC80 [36]: 0.38 µg/mL
IC50, pseudovirus neutralization [37]: > 50 µg/mL
IC50, pseudovirus neutralization [38]: 1.64 µg/mL
IC80 [39]: 2.79 µg/mL
IC50, pseudovirus neutralization [40]: > 50 µg/mL
IC50, pseudovirus neutralization [41]: 0.14 µg/mL
IC80 [42]: 0.196 µg/mL
IC80 [43]: 1.07 µg/mL
IC80 [44]: 8.22 µg/mL
IC80 [45]: 6.15 µg/mL
IC80 [46]: 0.734 µg/mL
IC80 [47]: 1.16 µg/mL
IC50, pseudovirus neutralization [48]: 0.008 µg/mL
IC80 [49]: > 50 µg/mL
IC80 [50]: 24.5 µg/mL
